Experimental data: the nanobody polyreactivity screen of Harvey et al. (2022)

Assay: yeast display, Sf9 membrane polyspecificity reagent, FACS + sequencing; frameworks hold sequencing errors
How it was run: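 Synthetic nanobody libraries on Saccharomyces cerevisiae BJ5465 were galactose-induced for 36–48 hours, stained 1 hour at 4 °C with 10% biotinylated, detergent-solubilized Sf9 membrane reagent and enriched on streptavidin microbeads. FACS then separated cells into low and high (top ~1%) gates by anti-HA (expression) and streptavidin (reagent binding) fluorescence. Genes were colony-PCR amplified, MiSeq 2 × 250 sequenced and CDR-length filtered. A clone's polyreactivity label is that of its gate of origin.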

Sequence	polyreactivity (PSR sort gate)
QVQLVESGGGLVHAGGSLRLSCAASGFILRSYGMGWYRQAPGKERELVAAITRGGSTYYADSVKGRFTISRDNAKNTVYLQMNSLKPEDTAVYYCAARTRYYSQQFDYWGQGTQVTVSS	high polyreactivity
QVQLVESGGGFVQAGGRLRLSCAASGRIFWMNAMGWYRQAPGKETEFVASITYGSDSTYYADSVKGRFTISRDNAKNTVYLQMNSLKPEDTAVYYCNREGWHYGPYGYWGQGTQVTVSS	low polyreactivity
QVQLVESGGGLVQAGGSLRLSCAASGSTFDYYAMGWYRQTPGKERELVAAISWSGGSTYYADSVKGRFTISRDNAKNTVYLQMNSPKPEDTAVYYCATGTYFPRYKYFEGYYWGQGTQVTVSS	high polyreactivity
QVQLVESGGGLVQAGGSLRLSCAASGLIFGSYVMGWYRQAPGKERELVAAITVRTGTTYYADSVKGRFTISRDNAKNTVYLQMNSLKPEDTAVYYCARRYRPKYGYWGQGTQVTVSS	high polyreactivity
QVQLVESGGGLVQAGGSLRLSCAASGFTFRSYAMGWYRQAPGKERELVASISWSGTSTYYADSVKGRFTISRDNAKNTVYLQMNSLKPEDTAVYYCNKYPSFYGAGYYWGQGTQVTVSS	high polyreactivity
QVQLVESGGGLVQAGGSLRLSCAASGRTFGDNAMGWYRQARGKERELVAAISSGDSTYYADSVKGRFTISRDNAKNSVYLQMNSLKPEDTAVYYCAARWRYTFYVSYYYWGQGTQVTVSS	high polyreactivity
QVQLVESGGGLVQAGGSLRLSCAASGRTFWQYSMGWYRQAPGKERELVAAITSSGGSTYYADSVKGRFTISRDNAKNTVYLQMNSLKPEDTAVYYCAADTRYYRYYYWGQGTQVTVSS	high polyreactivity
QVQLVESGGGLVQAGGSLRLTCAASGSTFSSYGMGWYRQAPGKERELVASITIRGGSTYYADSVKGRFTISRDNAKNTVYLQMNSLKPEDTAVYYCAADVTNRGTWVIYGYYYWGQGTQVTVSS	low polyreactivity
QVQLVESGGGLDQAGGSLRLSSAASGITFYGYDMGWYRQAPGKARELVAAITSDGITNYADSVKGRFTFSRDNAKNTVYLHMNSLKPEDTAVYYCAADLSFYRRYEWYYYWGQGTQVTVSS	low polyreactivity
QVQLVESGGGLVQAGGSLRLSCAASGSTFGSYAMGWYRQAPGKERELVAVITGGGDTNYADSVKGRFTISRDNAKNTVYLQMNSLKPEDTAVYYCAAEGSFYRYHVGSDYWGQGTQLTVSS	low polyreactivity
QVQLVESGGGLVPAGGSLRLSCAASGRISDLYAMGCYRQAPGKETEVVAGSTWRGGSTYYADSVKGRFTISRDNAKNTVYLQMNSLKPEDTAVYYCNAVWVQQVVGDGKRTWNFWYDYWGQGTQVTVSS	low polyreactivity
QVQLVESGGGLVQAGGSLRLSCAASGRIFVNYAMGWYRQAPGKERELDAAITSDGSTSYADSVKGRFTISRDNAKNTVYLQMNSLKPEDTAVYYCAKDFFEHSPVSHTYSSSKYDYWGQGTQVTVSS	low polyreactivity
QVQLVESGGGLVQAGGSLRLSCAASGGTFPAYTMGWYRQAPGKERELVAAITWSGGNTYYADSVKGRFTISRDNAKNTVYLQMNSLKPQDTAVYYCAAEYWQYQWSVRIDYEYWGQGTQVTVSS	high polyreactivity
QVQLVESGGGLVQAGGSLRLSCAASGSTFQFYAMGWSRQAPGKERELVATISSGDSTNYADSVKGRFTISRDNAKNTVYLQMNSLKPEDTAVYYCAADFWGQYQGLDGGDYWGQGTQVTVSS	low polyreactivity
QVQLVESGGGLVQAGGSLRLSCAASGSIFSWNAMGWYRQAPGKERELVAAISTRGSSTYYADSVKGRFTISRDNAKNTVYLQMNSLKPEDTAVYYCNAARTFPFYWGLRGSQRYDYWGQGTQVTVSS	high polyreactivity
QVQLVESRGGLVQAGGSLRLSCAATGFTIYYYAMGWYRQAPGKERELVAAITGSGGSTYYADSVKGRFTISRDNAKNTVYLQMNSLKPEDTAVYYCARRYQVGWYYKYDYWGQGTQVTVSS	high polyreactivity
QVQLVESGGGLVQAGGSLRLSCAASGITFRYYTMGWYRQAPGKERELVAVISWSGGSTYYADSVKGRFTISRDNAKNTVYLQMNSLKPEDTAVYYCAAVRRISRYDYWGQGTQVTVSS	high polyreactivity
QVQLVESGGGLVQAGGSLRLSCAASGLNFARNAMGWYRQAPGKERELVAAISSSGNTYADSVKGRFTISRDNAKNTVYLQMNSLKPEDTAVYYCAADYVRWGQRKRSRYYYWGQGTQVTVSS	high polyreactivity
QVQLVESGGGLVQAGGSLRLSCAASGYIFPGNAMGWYRQAPGKERELVATISGSAGSTSYADSVKGRFTISRDNAKNTVYLQMNSLKPEDTAVYYCNKAYSYSWGDLDYWGQGTQVTVSS	high polyreactivity
QVQLVESGGGLVQAGGSLRLSCAASGSTFGRNAMGWYRQAPGKERELVASISRRGGSTYYADSVKGRFTISRDNAKNTVYLQMNSLKPEDTAVYYCNARYYFSDYGYWGQGTQVTVSS	high polyreactivity
QVQLVESGGGLVQAGGSLRLSCAASGRTFDLNAMGWYRQAPGKERELVAAISFSVADTYYADSVKGRFTISRDNAKNTVYLQMNSLKPEDTAVYYCAADSELGSLSGESDYWGQGTQVTVSS	low polyreactivity
QVQLVESGGGLVQAGGSLRLSCAASGYIFTRNAMGWYRQAPGKERELVATISSRGGRTYYADSVKGRFTISRDNAKNTVYLQMNSLKPEDTAVYYCAATPWYRTRTYDYWGQGTQVTVSS	high polyreactivity

Sequence	polyreactivity (PSR sort gate)
QVQLVESGGGLVQAGGSLRLSCAASGFTFRTNAMGWYRQAPGKERELVAAISTGARTYYADSVKGRFTISRDNAKNTVYLQMNSLKPEDTAVYYCNKVLRRFLSRYDYWGQGTQVTVSS	high polyreactivity
QVQLVESGGGLFQAGGSLRLSCAASGRIFQHNTMGWYRQAPGKEREFVAAIRRSGGSTYYADSVKGRFTISRDNAKNTVYLQMNSLKPEDTAVFYCAARDYPTGTRRWGGGDSWGQGTQVTVSS	low polyreactivity
QVQLVESGGGLVQAGGSLRLSCAASGSIFVGYAMGWYRQAPWKERELVAAISKRGGGTYYADSVKGRFTISRDNAKNTVYLHMNSLKPEDTAVYYCNAVPVHLDVASGYYYWGQGTQVTVSS	high polyreactivity
QVQLVESGGGLVQAGGSLRLSCAASGSYFDYYAMGCYTQAPGKERELVAAISWRGGTTYYADSVKGRFTISRDTAKKTVYLQMNSLKPEETAVYYCNADKRFRRYDYWGQGTQVTVSS	high polyreactivity
QVQLVESGGGLVQAGGSLRLSCAASGRIFLRYAMGWYRQAPGKERELVAVITWSGGSTYYADSVKGRFTISRDNAKNTVYLQMNSLKPEDTAVYYCAADWYPTGFYYWGQGTQVTVSS	low polyreactivity
QVQLVESGGGLVQAGGSLRLSCAASGSIFLIYAMGWYRQAPGKERELVAAISSGGSTYYADSVKGGFTISRDNAKNTVYLQMNSLKPEDTAVYYCATYSTSVGYHLYYWGQGTQVTVSS	low polyreactivity
QVQLVESGGGLVQAGGSLRLSCAASGSTFGWYAMGWYRQAPGKERELVAAISTSGGSSYYADSVKGRFTISRDNAKNTVYLQMNSLKPEDTAVYYCNGYYRRYSITFDRYDYWGQGSQVTVSS	high polyreactivity
QVQLVESGGGLVQAGGSLRISCAASGRTFPGYTMGWYRQAPGKERELVAAITRVGTTYYADSVKGRFTISRDNAKNTVYLQMNSLKPEDTAVYYCAAVISQGFIRYYYWGQGTQVTVSS	high polyreactivity
QVQLVESGGGLVQAGGSLRLSCAASGFIFYGNAMGWYRQAPGKVRELVAGISRSGGSTYYADSVKGRFTISRDNAKNTVSLQMNSLKPEDSAVYYCAASYWHRRYDYWGQGTQVTVSS	high polyreactivity
QVQLVESGGGLVQAGGSLRLSCAASGSIFVLYAMGWYRQAPGKERELVATITWSGDSTYYADSVKGRFTISRDNAKNTVYLQMNSLKPEDTAVYYCNKRIWDQYDWGQGTQVTVSS	low polyreactivity
QVQLVESGGGLVQAGGSLRFSCAASGRTFRYYAMRWYRQAPGKERELVADISSTGRTYYADSVKGRFTISRDNAKNTVYLQMNSLNPEDSAVYYCAADYYSTYRTIYYYWGQGTQVSVSS	low polyreactivity
QDQLVESCGCLVQAGGSLRLSCASSGSTFGTYAMGWYRQAPGKERELVAAISSGDSTTYADSVKGRFTISRDNAKNTVYFQRNSLKQVDTAVYYCAARTFLMRNGGYNYWGEGTQVTVSS	low polyreactivity
QVQLVESGGGLVQAGGSLRLSCASSGSTFGPYTMGWYTQAPGKERELVATISSGGSTYYADSVKGRFTISRDNAKYTVYLQMKSLKPEDTAVYYCAARYWSIYDYWGQGTQVTVSS	low polyreactivity
QVQLVESGGGLVQAGGSLRISCAASGFTFGPYDMGWYRQAPGKERELVAAITDSSGSTHYADSVKGRFTISRDNAKNTVYFQMNSLKPEDTAVYTCAADDSSRTTYYYWGQGTEVTVSS	low polyreactivity
QVQLVESGGGLVQAGGSLRLSCAASGFIFRLYAMGWYRQAPGKERELVAALSSGTSTYYADSVKGRFTISRDNAKNTVYLQMNSLKPEDSAVYYCAAVPRVNWSRYVYFWYDYWGQGTQVTVSS	high polyreactivity
QVQLQESGGGLVQAGGSLRLSCAASGSIFHLHIMCWYRQAPGKESESVAAISYGTSTYYADSVKGRFTICRDNAKNTVYLQMNSPKPDDTAVYYCAALFLVSKHHHYWGEGTQVTVSS	low polyreactivity
QVQLVESGGGLVQAGGSLRLSCAASGRIVGAYAMGWYRQAPGKERELVAAITSAGSTHYADSVKGRFTISRDNAKNTVYLQMNSLKPEDSAVYYCAADGIARAYVLFYAYDFLYDYWGQGTQVTVSS	low polyreactivity
QVQLVESGGGLVQAGGSLRLSCAASGSIFRYNAMGWYRQAPGKERELVAAITWSGGSTYYADSVKGRFTISRDNAKNSVYLQMNSLKPEDTAVYYCAASPYPHYRRYTGGFYYWGQGTQVTVSS	high polyreactivity
QDQLVESGGGLVQAGGSLRLSCAASGSIFKHNDMGWYRQAPGKERELVAAISRSGGSTYYAHSVKGRFTISRDNAKNTVYLLMNSLKPEDTAVYYCNAGRRTARYGYWGQGTQVTVSS	high polyreactivity
QVQLVESGGGLVQAGGSLRLSCASSGFTFTANDMGWYRKAPGKERELVAAISWSGDSTYYADSVKGRFTISRDNAKNTVYLQMNRLIPEDTAVYYCNVVFEFLSDGYYSYDYWVQGTQVTVSS	low polyreactivity
QVQLVESGGGLVQAGGSLRLSCAASGRTFWFYDMGWYRQAPGKEREFVASITSSGGSTYYADSVKGRFTISRDIAKNTVYLQMNSLKPEDTAVYYCAASFYWTTRYSREYDYWGQGTQVTVSS	high polyreactivity
